# Earlier results in US7713705B2, “Markers for differential diagnosis and methods of use thereof” (Biosite, Inc., priority 2002, dated 2010).
# Read-outs that look alike come from different tables or passages of the source.
# Tests used:
# [1] = bloodstream of rats
# [2] = plasma, in mice
# [3] = in animals
molecule,measurement,setting,value
"S-100β: β subunit of S-100, a 21 kDa cytosolic Ca2+-binding protein; specific to the nervous system",biological half-life,in vivo,2 hours
Platelet factor 4 [PF4],"biphasic half-life, first phase",plasma,1 min
same,"extended half-life, second phase",plasma,20 min
same,half-life extended by the presence of heparin,plasma,20 to 40 min
same,"biphasic half-life, first phase",serum,1 min
same,"extended half-life, second phase",serum,20 min
same,half-life extended by the presence of heparin,serum,20 to 40 min
Phosphoglyceric acid mutase [PGAM],half-life,[1],less than 2 hours
"CK-BB: brain-specific creatine kinase isoform, an 85 kDa cytosolic protein",half-life,in vivo,60 to 300 min
C-reactive protein [CRP],half-life,bloodstream,approximately 19 hours
Interleukin-6 [IL-6],half-life,bloodstream,252 min
Prothrombin fragment 1+2 [F1+2],half-life,plasma,approximately 90 minutes
Tumor necrosis factor α [TNFα],half-life,bloodstream,approximately 1 hours
Malondialdehyde-modified low-density lipoprotein [MDA-modified LDL],half-life,[2],less than 5 minutes
Platelet-derived growth factor [PDGF],"biphasic half-life, first phase",[3],approximately 5 minutes
same,"biphasic half-life, second phase",[3],~60 min
Interleukin-1β [IL-1β],"biphasic physiological half-life, first phase",in vivo,5 minutes
same,"biphasic physiological half-life, second phase",in vivo,4 hours
thrombin-ATIII complex [TAT],half-life,bloodstream,approximately 5 minutes
"β-thromboglobulin (protein, UniProt P02775 48-128, looked up, Beta-thromboglobulin) Beta-thromboglobulin: GKEESLDSDLYAELRCMCIKTTSGIHPKNIQSLEVIGKGTHCNQVEVIATLKDGRKICLDPDAPRIKKIVQKKLAGDESAD","biphasic half-life, first phase",plasma,10 min
same,"extended half-life, second phase",plasma,60 min
same,"biphasic half-life, first phase",serum,10 min
same,"extended half-life, second phase",serum,60 min
"neuron-specific enolase (protein, UniProt P09104 2-434, looked up) Gamma-enolase: SIEKIWAREILDSRGNPTVEVDLYTAKGLFRAAVPSGASTGIYEALELRDGDKQRYLGKGVLKAVDHINSTIAPALISSGLSVVEQEKLDNLMLELDGTENKSKFGANAILGVSLAVCKAGAAERELPLYRHIAQLAGNSDLILPVPAFNVINGGSHAGNKLAMQEFMILPVGAESFRDAMRLGAEVYHTLKGVIKDKYGKDATNVGDEGGFAPNILENSEALELVKEAIDKAGYTEKIVIGMDVAASEFYRDGKYDLDFKSPTDPSRYITGDQLGALYQDFVRDYPVVSIEDPFDQDDWAAWSKFTANVGIQIVGDDLTVTNPKRIERAVEEKACNCLLLKVNQIGSVTEAIQACKLAQENGWGVMVSHRSGETEDTFIADLVVGLCTGQIKTGAPCRSERLAKYNQLMRIEEELGDEARFAGHNFRNPSVL",biological half-life,in vivo,48 hours
